This is an account of results in patent US20210355237A1 (RIKEN, published 2021).

Assay [1] deals with feline serum IgE antibody of allergy cases, after heating (feline). Kind of assay: IgE ELISA of feline serum on immobilised Dermatophagoides Farinae allergen, 6C12 detection; Allergy case, Cat 1. On the technique in general: An ELISA detects its analyte on a solid surface through an enzyme-linked reagent.
The target of assay [2] is non-heated Der f 2-IgE antibody in clinical-case serum of allergic dogs (canine). Kind of assay: Der f 2-IgE ELISA, serum before heating, specimen containing pathogenic IgE antibody.
The target of assay [3] is heated (56° C.) Der f 2-IgE antibody in experimental canine serum (canine). Kind of assay: Der f 2-IgE ELISA, serum after heating, specimen containing non-pathogenic IgE antibody.
Assay [4] deals with feline serum IgE antibody of allergy cases, after heating (feline). The experiment in a line: IgE ELISA of feline serum on immobilised Dermatophagoides Farinae allergen, 6C12 detection; Allergy case, Cat 2.
The target of assay [5] is T1, Peptide (-4C) with 6×His tag and GS linker (canine).
T1 construct: 4 amino acids deleted from the C terminal
T1 peptide: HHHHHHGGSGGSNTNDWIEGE
Kind of assay: ELISA, His-tagged peptide captured by anti-His tag antibody, biotinylated 6C12.

The target of assay [6] is T2, Peptide (-5C) with 6×His tag and GS linker (canine).
T2 construct: 5 amino acids deleted from the C terminal
T2 peptide: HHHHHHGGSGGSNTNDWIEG
The description is as above.

For assay [7], the target named is T3, Peptide (-2C) with 6×His tag and GS linker (canine).
T3 construct: 2 amino acids deleted from the C terminal
T3 peptide: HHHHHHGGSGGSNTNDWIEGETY
Described as above.

Assay [8] deals with T4, Peptide (-1C) with 6×His tag and GS linker (canine).
T4 construct: 1 amino acid deleted from the C terminal
T4 peptide: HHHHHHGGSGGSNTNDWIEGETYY
Described as above.

In assay [9] the target is T5, Peptide (-4) with 6×His tag and GS linker (canine).
T5 construct: 4 amino acids deleted from the N terminal of Peptide-full
T5 peptide: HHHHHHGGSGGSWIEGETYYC
The description is as above.

For assay [10], the target named is T6, Peptide (-3C) with 6×His tag and GS linker (canine).
T6 construct: 3 amino acids deleted from the C terminal
T6 peptide: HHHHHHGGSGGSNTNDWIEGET
Described as above.

The target of assay [11] is non-heated Der f 2-IgE antibody in experimental canine serum (beagles sensitized with Der f 2 and alum) (canine). The experiment in a line: Der f 2-IgE ELISA, serum before heating, specimen containing non-pathogenic IgE antibody.
The target of assay [12] is feline serum IgE antibody of allergy cases, after heating (feline). Kind of assay: IgE ELISA of feline serum on immobilised Dermatophagoides Farinae allergen, 6C12 detection; Allergy case, Cat 3.
The target in assay [13] is heated (56° C., 15 minutes) Der f 2-IgE antibody in clinical-case serum of allergic dogs (canine). The experiment in a line: Der f 2-IgE ELISA, serum after heating, specimen containing pathogenic IgE antibody.

B1: 6C12 (monoclonal antibody produced from hybridoma clone 6C12, mouse IgG1κ) (antibody, V domains shown)
VH: EVQLVESGGGLVQPKGSLKLSCAASGFNFNAYVMNWVRQAPGKGLEWVSRIRSKSNNYATYYADSVKDRFTISRDDSESMLYLQMNNLKTEDTAMYYCVRPDYYGGSPFAYWGQGTLVTVSA
VL: QIVLTQSPAIMSASPGEKVTISCSASSSVSYMYWYQQKPGSSPKPWIYRTSNLASGVPARFGGSGSGTSYSLTISSMEAEDAATYYCQQYHSYPPTFGVGTKLELK
notes: Mouse IgG1κ purified from ascites on Protein G; used biotin-labelled (ELISA, flow cytometry) or FITC-labelled (RBL-2H3); 129-174); also called 6C12 antibody; purified 6C12
With B1, the IgE level detected by 6C12, After heating in assay [1] was determined as 89 ng/mL; in [4], 34 ng/mL; in [12], 91 ng/mL. For the same molecule, the Der f 2-IgE concentration detected by 6C12 in assay [2] came to 0 ng/mL; in [3] it was 1050 ng/mL; in assay [11], 1050 ng/mL; in assay [13], 848 ng/mL. The binding result in [5], in assay [6], in assay [7], in assay [8], in assay [9] and in [10] was “no binding” in each case.
